Assay results as given in the nanobody polyreactivity screen of Harvey et al. (2022).

Test: yeast display, Sf9 membrane polyspecificity reagent, FACS + sequencing; frameworks hold sequencing errors
Method in brief: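 Galactose induction of a Saccharomyces cerevisiae BJ5465 synthetic nanobody display library ran 36–48 hours. The cells were then stained for 1 hour at 4 °C with 10% biotinylated, detergent-solubilized Sf9 membrane reagent, pulled down on streptavidin microbeads and FACS-sorted into low and high (top ~1%) gates on expression and reagent-binding fluorescence. Labels for polyreactivity follow the gate of origin.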

| Sequence | polyreactivity (PSR sort gate) |
| --- | --- |
| QVQLVESGGGLVQAGGSLRLSCAASGITFYSNAMGWYRQAPGKERELVATITRGGSTYYADSVKGRFTISRDNAKNTVYLQMNSLKPEDTAVYYCAADYSYRGREYGYWGQVTQVTVSS | low polyreactivity |
| QVLLVESGGGLVQAGGSLRLSFAASGITFYGYDMGWYRQATGKERELVAAITSDGITNYADSVKGRFTISRDNAKNTVYLQMNSLKPEDTAVYYCAADVSFYRRYEWYYYWGQGTQVTVSS | low polyreactivity |
| QVQIVESGGGLVQAGGSLRLSCAASGRIFGAYGMGWYRQAPGKERELVAAISNGGRTSYADSVKGRFTISRDNAKNTVYLQMNSLKPEDTAVYYCAAVYWQWYGAYDYWGQGTQVTVSS | high polyreactivity |
| QVQLVESGGGLVQAGGSLRLSCAASGRIFPLYAMGWYRKAPGKERELVAAISYSGGSTYYADSVKGRFTISRDNAKNTVYLQMISLKPEDTSVYYCAAQTARVSYRMGYWGQGTQVTVSS | high polyreactivity |
| QVQLVESGGGLVQAGGSLRLSSAASGFIFVGNAMGWYRQAPGKERELVATISGADSTNYADSVKGRFTISRDNAKNTVYLQMNSLKPEDTAVYDCAKEGYSYFDGNYGPYRYDYWGQGTQVTVSS | low polyreactivity |
| QVQLVESGGGLVQAGGSLRLSCAASGSIFTDNVMGWYSQAPGKERELVAAITYSAASTYYADSVKGRFTISRDNAKNTVYLQMNSLKPEDTAVYYCNARIIYRKWLFRSGTFNYWGQGTQVTVSS | low polyreactivity |
| QVQLVESGGGLVQAGGRLRLSCAASGRIFIRNAMGWYRQAPGKERELVAAIDSVGSTYYADSVKGRFTISRDNAKNTVYLQMNSLKPEDTAVYYCAARGWKYASPYWRYYYWGQGTQVTVSS | low polyreactivity |
| QVQLVESGGGLVQAGGSLRLSCAASGSIYPYNAIGLYRQAPGKERELVAAISYRGGRTYYADSVMGRFTISRDNAKNTVYLQKNSLKPEDTAVYYCNADSIYSARGWLYGYWGQGTQVTVSS | low polyreactivity |
| QVQLVESGGGLVQAGGSLRLSCAASGSTFGGNAMGWYRQAPGKERELVAAITVGGDSPYYADSVKGRYTISRDNAKNTVYLQMNSLKPEDTADYYCAARHYWWYDYWGQGTQVTVSS | low polyreactivity |
| QVQLVESGRGLVQAGVSLRLSCASSGSTFTLNVMGWYRKAPVKERELVAGFSKRGGNTYYADSVKGRFTISRDYAKNTVYLQMNRLKPEDTAVYFCAKRQGVGYGYYYLGQGTQVTVSS | high polyreactivity |
| QVQLVESGGGLVQAGGSLRLSCAASGLIFGTYAMGWYRQAPGKERELVATINSSGGSTYYADSVKGRFTISRDNAKNTVYLQMNSLKPEDTAVYYCNTRRYDAYYDYDYWGQGTQVTVSS | low polyreactivity |
| QVQLVESGGGLVQAGGSLRLSCAASGRTFYYYAMGWYRQAPGKEREFVAAITYRGDSTNYADSVKGRFTISRDNAKNTVYLQMNSLKPEDTAVYYCAADSPYQIYYYWGQGTQVTVSS | low polyreactivity |
| QVQLVESGGGLVQAGGSLRLRCAASGRTFDKYAMGWYRQAPGKERELVAAISYDAGRTYYADSVKGRFTISRDNAKNTVYLQMNSLKPEDNAVYFCNAVRFRGFGWGQGTQVTVSS | high polyreactivity |
| QVHLVESGGGLLQAGGSLRLSCAASGITFSRNVMGWYIQAPGKERELVAAISTSGGSTYYADSVKGRFTISRDNAKNTVYLQMNSLKPEDTAGYYCAKDITVTYPGLDYDYWGQGTQVTVSS | low polyreactivity |
| QVQLVESGGGLVQAGGSLRLSCAASGNTFYGYAMGWYRQAPGKERELVASITLSGDSMYYADSVKGRFTISRDNAKNTVYLQMNSLIPDDTAVYYCNADWYFQYPYDYWGQGTQVSVSS | low polyreactivity |
| QVQLVESGGGLVQAGGSLRLSCAAYGSIFIYAMGGYRQAPGKVRELVAAISSSGGSTYYADSVKGRFTISRDNAKNTVYLQMNSLKPEDTAVYYCAARYTYSGDKGYYWGQGTQVTVSS | high polyreactivity |
| QVQLVESGGGLVQAGGSHRLSCAASGRTFAPNAMGWYRQAPGKERELVAAISSVGITYYADSVNGRFTISRDNAKNTVYLQMNSLNPEDTAVYYCAKVRKTRSITDGYGYWGQGTQVTVSS | low polyreactivity |
